Assay results reported in patent publication EP4039268A1 (IMBA-Institut für Molekulare Biotechnologie GmbH, dated 2022).

B1: Ly75_7 CRD-mouse IgG2a-Fc fusion protein (Fc fusion)
chain: YLNNLYKIISKPLTWHGALKECMKEKMRLVSITDPYQQAFLAVQATLRNSSFWIGLSSQDDELNFGWSDGKRLQFSNWAGSNEQLDDCVILDTDGFWKTADCDDNQPGAICYYGGGSGGGSGGGS
B2: Ly75_9 CRD-mouse IgG2a-Fc fusion protein (Fc fusion)
chain: YKDGVYSVIQKKVTWYEALNACSQSGGELASVHNPNGKLFLEDIVNRDGFPLWVGLSSHDGSESSFEWSDGRAFDYVPWQSLQSPGDCVVLYPKGIWRREKCLSVKDGAICYKGGGSGGGSGGGS
B3: Mrc1_3 CRD-mouse IgG2a-Fc fusion protein (Fc fusion)
chain: HGFYCYLIGSTLSTFTDANHTCTNEKAYLTTVEDRYEQAFLTSLVGLRPEKYFWTGLSDVQNKGTFRWTVDEQVQFTHWNADMPGRKAGCVAMKTGVAGGLWDVLSCEEKAKFVCKGGGSGGGSGGGS
B4: Mrc1_5 CRD-mouse IgG2a-Fc fusion protein (Fc fusion)
chain: YKDYQYYFSKEKETMDNARAFCKKNFGDLATIKSESEKKFLWKYINKNGGQSPYFIGMLISMDKKFIWMDGSKVDFVAWATGEPNFANDDENCVTMYTNSGFWNDINCGYPNNFICQGGGSGGGSGGGS
B5: Mrc1_6 CRD-mouse IgG2a-Fc fusion protein (Fc fusion)
chain: YKNKCFKIFGFANEEKKSWQDARQACKGLKGNLVSIENAQEQAFVTYHMRDSTFNAWTGLNDINAEHMFLWTAGQGVHYTNWGKGYPGGRRSSLSYEDADCVVVIGGNSREAGTWMDDTCDSKQGYICQGGGSGGGSGGGS
B6: Mrc1_7 CRD-mouse IgG2a-Fc fusion protein (Fc fusion)
chain: YGKSSYSLMKLKLPWHEAETYCKDHTSLLASILDPYSNAFAWMKMHPFNVPIWIALNSNLTNNEYTWTDRWRVRYTNWGADEPKLKSACVYMDVDGYWRTSYCNESFYFLCKGGGSGGGSGGGS
B7: Mrc1_8 CRD-mouse IgG2a-Fc fusion protein (Fc fusion)
chain: FYGHCYYFESSFTRSWGQASLECLRMGASLVSIETAAESSFLSYRVEPLKSKTNFWIGMFRNVEGKWLWLNDNPVSFVNWKTGDPSGERNDCVVLASSSGLWNNIHCSSYKGFICKGGGSGGGSGGGS
B8: Mrc2_5 CRD-mouse IgG2a-Fc fusion protein (Fc fusion)
chain: FQEAEYKFFEHHSSWAQAQRICTWFQADLTSVHSQAELDFLGQNLQKLSSDQEQHWWIGLHTLESDGRFRWTDGSIINFISWAPGKPRPIGKDKKCVYMTARQEDWGDQRCHTALPYICKGGGSGGGSGGGS
B9: Mrc2_6 CRD-mouse IgG2a-Fc fusion protein (Fc fusion)
chain: FLNKCFRIQGQDPQDRVKWSEAQFSCEQQEAQLVTIANPLEQAFITASLPNVTFDLWIGLHASQRDFQWIEQEPLLYTNWAPGEPSGPSPAPSGTKPTSCAVILHSPSAHFTGRWDDRSCTEETHGFICGGGSGGGSGGGS
B10: Mrc2_8 CRD-mouse IgG2a-Fc fusion protein (Fc fusion)
chain: FREHCYSFHMEVLLGHKEALQRCQKAGGTVLSILDEMENVFVWEHLQTAEAQSRGAWLGMNFNPKGGTLVWQDNTAVNYSNWGPPGLGPSMLSHNSCYWIQSSSGLWRPGACTNITMGVVCGGGSGGGSGGGS
B11: Cd209e CRD-mouse IgG2a-Fc fusion protein (Fc fusion)
chain: FFNGNCYFFSKSQRDWHDSMTACKEMGAQLVIIKSHEEQSFLQQTSKKNSYTWMGLSDLNKEGEWYWLDGSPLSDSFEKYWKKGQPNNVGGQDCVEFRDNGWNDAKCEQRKFWICKGGGSGGGSGGGS
B12: Pkd1 CRD-mouse IgG2a-Fc fusion protein (Fc fusion)
chain: GNGHCYRLVAEKAPWLQAQEQCRTWAGAALAMVDSPAIQHFLVSKVTRSLDVWIGFSSVEGTEGLDPRGEAFSLESCQNWLPGEPHPATAEHCVRLGPAGQCNTDLCSAPHSYVCEGGGSGGGSGGGS
B13: Pkd1l2 CRD-mouse IgG2a-Fc fusion protein (Fc fusion)
chain: not shown
B14: Pla2r1_1 CRD-mouse IgG2a-Fc fusion protein (Fc fusion)
chain: SSRICYQFNLLSSLSWNQAHSSCLMQGGALLSIADEDEEDFIRKHLSKVVKEVWIGLNQLDEKAGWQWSDGTPLSYLNWSQEITPGPFVEHHCGTLEVVSAAWRSRDCESTLPYICKGGGSGGGSGGGS
B15: Pla2r1_2 CRD-mouse IgG2a-Fc fusion protein (Fc fusion)
chain: FNRKCYKLKKDRKSWLGALHSCQSNDSVLMDVASLAEVEFLVSLLRDENASETWIGLSSNKIPVSFEWSSGSSVIFTNWYPLEPRILPNRRQLCVSAEESDGRWKVKDCKERLFYICKGGGSGGGSGGGS
B16: Pla2r1_8 CRD-mouse IgG2a-Fc fusion protein (Fc fusion)
chain: FKGNCYSFSTVLDSRSFEDAHEFCKSEGSNLLAIRDAAENSFLLEELLAFGSSVQMVWLNAQFDNNNKTLRWFDGTPTEQSNWGLRKPDMDHLKPHPCVVLRIPEGIWHFTPCEDKKGFICKGGGSGGGSGGGS
B17: Reg1 CRD-mouse IgG2a-Fc fusion protein (Fc fusion)
chain: ISCPEGSNAYSSYCYYFTEDRLTWADADLFCQNMNSGYLVSVLSQAEGNFVASLIKESGTTDANVWTGLHDPKRNRRWHWSSGSLFLYKSWATGSPNSSNRGYCVSLTSNTGYKKWKDDNCDAQYSFVCKFGGGSGGGSGGGS
B18: Reg2 CRD-mouse IgG2a-Fc fusion protein (Fc fusion)
chain: INCPEGANAYGSYCYYLIEDRLTWGEADLFCQNMNAGHLVSILSQAESNFVASLVKESGTTASNVWTGLHDPKSNRRWHWSSGSLFLFKSWATGAPSTANRGYCVSLTSNTAYKKWKDENCEAQYSFVCKFGGGSGGGSGGGS
B19: Reg3a CRD-mouse IgG2a-Fc fusion protein (Fc fusion)
chain: YRSHCYALVMTPKSWFQADLVCQKRPSGHLVSILSGGEASFVSSLVNGRVDNYQDIWIGLHDPTMGQQPNGGGWEWSNSDVLNYLNWDGDPSSTVNRGHCGSLTASSGFLKWGDYYCDGTLPFVCKGGGSGGGSGGGS
B20: Reg3b CRD-mouse IgG2a-Fc fusion protein (Fc fusion)
chain: YGSYCYALFQIPQTWFDAELACQKRPGGHLVSVLNSAEASFLSSMVKRTGNSYQYTWIGLHDPTLGAEPNGGGWEWSNNDVMNYFNWERNPSTALDRAFCGSLSRASGFLKWRDMTCEVKLPYVCKGGGSGGGSGGGS
B21: Reg3g CRD-mouse IgG2a-Fc fusion protein (Fc fusion)
chain: YGSYCYALFSVSKNWYDADMACQKRPSGHLVSVLSGAEASFLSSMIKSSGNSGQYVWIGLHDPTLGYEPNRGGWEWSNADVMNYINWETNPSSSSGNHCGTLSRASGFLKWRENYCNLELPYVCKGGGSGGGSGGGS
B22: Sell CRD-mouse IgG2a-Fc fusion protein (Fc fusion)
chain: WTYHYSEKPMNWENARKFCKQNYTDLVAIQNKREIEYLENTLPKSPYYYWIGIRKIGKMWTWVGTNKTLTKEAENWGAGEPNNKKSKEDCVEIYIKRERDSGKWNDDACHKRKAALCGGGSGGGSGGGS
B23: Sftpa1 CRD-mouse IgG2a-Fc fusion protein (Fc fusion)
chain: not shown
B24: Siglec1 CRD-mouse IgG2a-Fc fusion protein (Fc fusion)
chain: TWGVSSPKNVQGLSGSCLLIPCIFSYPADVPVSNGITAIWYYDYSGKRQVVIHSGDPKLVDKRFRGRAELMGNMDHKVCNLLLKDLKPEDSGTYNFRFEISDSNRWLDVKGTTVTVTGGGSGGGSGGGS
B25: Siglec12 CRD-mouse IgG2a-Fc fusion protein (Fc fusion)
chain: PQEVFTLNVERKVVVQEGLCVLVPCNFSYLKKRLTDWTDSDPVHGFWYREGTDRRKDSIVATNNPIRKAVKETRNRFFLLGDPWRNDCSLNIREIRKKDAGLYFFRLERGKTKYNYMWDKMGGGSGGGSGGGS
B26: Cd302 CRD-mouse IgG2a-Fc fusion protein (Fc fusion)
chain: FQGSCYAFLQVTINVENIEDVRKQCTDHGADMVSIHNEEENAFILDTLQKRWKGPDDLLLGMFYDTDDATFKWYDHSNMTFDKWADQDGEDLVDTCGFLYTKTGEWRKGDCEISSVEGTLGGGSGGGSGGGS
B27: Cd69 CRD-mouse IgG2a-Fc fusion protein (Fc fusion)
chain: YKRTCYFFSTTTKSWALAQRSCSEDAATLAVIDSEKDMTFLKRYSGELEHWIGLKNEANQTWKWANGKEFNSWFNLTGSGRCVSVNHKNVTAVDCEANFHWVCSGGGSGGGSGGGS

What follows are binders tested against T1, human recombinant soluble ACE2 (human, UniProt Q9BYF1 18-740) (assay: ELISA screen).
T1 construct: also called hrsACE2
T1 sequence (Q9BYF1 18-740 limits assumed): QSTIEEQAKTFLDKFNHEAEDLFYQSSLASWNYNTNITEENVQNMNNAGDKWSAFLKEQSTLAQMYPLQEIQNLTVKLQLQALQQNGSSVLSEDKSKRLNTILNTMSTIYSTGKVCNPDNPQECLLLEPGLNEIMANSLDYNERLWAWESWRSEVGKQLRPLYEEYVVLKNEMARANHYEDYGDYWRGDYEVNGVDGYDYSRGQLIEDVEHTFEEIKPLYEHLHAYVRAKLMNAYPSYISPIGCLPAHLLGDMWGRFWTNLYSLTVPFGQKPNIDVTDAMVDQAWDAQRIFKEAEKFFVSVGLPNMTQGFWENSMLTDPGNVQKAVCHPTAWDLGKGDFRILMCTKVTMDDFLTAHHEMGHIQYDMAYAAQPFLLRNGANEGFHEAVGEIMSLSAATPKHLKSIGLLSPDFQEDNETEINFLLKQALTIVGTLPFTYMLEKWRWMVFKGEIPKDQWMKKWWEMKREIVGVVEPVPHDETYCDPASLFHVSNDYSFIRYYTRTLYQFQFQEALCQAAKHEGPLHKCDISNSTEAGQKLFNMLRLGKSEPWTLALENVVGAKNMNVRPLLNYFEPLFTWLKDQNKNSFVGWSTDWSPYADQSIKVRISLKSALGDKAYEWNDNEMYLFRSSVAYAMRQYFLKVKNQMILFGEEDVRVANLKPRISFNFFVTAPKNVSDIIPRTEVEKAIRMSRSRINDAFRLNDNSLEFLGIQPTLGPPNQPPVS

Row | Binder | Mean normalized OD
1 | B1 | -0.009 OD
2 | B2 | -0.014 OD
3 | B3 | -0.064 OD
4 | B4 | -0.004 OD
5 | B5 | -0.001 OD
6 | B6 | -0.008 OD
7 | B7 | -0.021 OD
8 | B8 | -0.005 OD
9 | B9 | -0.019 OD
10 | B10 | -0.001 OD
11 | B11 | -0.016 OD
12 | B12 | -0.01 OD
13 | B13 | -0.002 OD
14 | B14 | -0.066 OD
15 | B15 | -0.019 OD
16 | B16 | -0.005 OD
17 | B17 | -0.073 OD
18 | B18 | -0.042 OD
19 | B19 | -0.132 OD
20 | B20 | -0.009 OD
21 | B21 | -0.014 OD
22 | B22 | -0.23 OD
23 | B23 | -0.092 OD
24 | B24 | -0.002 OD
25 | B25 | -0.105 OD
26 | B26 | -0.002 OD
27 | B27 | -0.022 OD

Each binder was assayed against T2, full-length trimeric SARS-CoV-2 Spike protein (Spike-H6) (SARS-CoV-2, N-glycosylated (22 N-glycosylation sites)) (assay: ELISA screen).
T2 construct: also called trimeric Spike; full-length Spike-H6

Row | Binder | Mean normalized OD
28 | B1 | 0.001 OD
29 | B2 | 0.001 OD
30 | B3 | 0.037 OD
31 | B4 | -0.001 OD
32 | B5 | 0.004 OD
33 | B6 | -0.002 OD
34 | B7 | -0.057 OD
35 | B8 | -0.002 OD
36 | B9 | 0.011 OD
37 | B10 | 0 OD
38 | B11 | 0.045 OD
39 | B12 | 0 OD
40 | B13 | 0.001 OD
41 | B14 | 0 OD
42 | B15 | 0.001 OD
43 | B16 | -0.002 OD
44 | B17 | 1.55 OD
45 | B18 | 0.056 OD
46 | B19 | 0.006 OD
47 | B20 | 0.005 OD
48 | B21 | -0.009 OD
49 | B22 | -0.016 OD
50 | B23 | 0.005 OD
51 | B24 | 0 OD
52 | B25 | 0.046 OD
53 | B26 | -0.002 OD
54 | B27 | 0.001 OD

Each binder was assayed against T3, monomeric SARS-CoV-2 receptor binding domain (RBD-H6) (SARS-CoV-2, UniProt P0DTC2 319-541) (assay: ELISA screen).
T3 construct: Made in HEK293-6E cells; also called RBD Spike; monomeric RBD

Row | Binder | Mean normalized OD
55 | B1 | 0.003 OD
56 | B2 | 0.004 OD
57 | B3 | 0.038 OD
58 | B4 | 0 OD
59 | B5 | 0.004 OD
60 | B6 | 0.02 OD
61 | B7 | 0.019 OD
62 | B8 | 0.002 OD
63 | B9 | 0.006 OD
64 | B10 | 0.003 OD
65 | B11 | 0.048 OD
66 | B12 | 0 OD
67 | B13 | 0.001 OD
68 | B14 | 0 OD
69 | B15 | 0.011 OD
70 | B16 | 0.019 OD
71 | B17 | 0.009 OD
72 | B18 | 0.026 OD
73 | B19 | 0.039 OD
74 | B20 | 0.004 OD
75 | B21 | 0.017 OD
76 | B22 | -0.041 OD
77 | B23 | 0.002 OD
78 | B24 | 0 OD
79 | B25 | -0.021 OD
80 | B26 | 0.001 OD
81 | B27 | 0.001 OD
